Our source for the Kd values is PMC12307675.

The experiment deals with recombinant SARS-CoV-2 spike protein (SARS-CoV-2) (UniProt P0DTC2). Briefly: SPR.
One may read the Kd as the constant that tells how readily two partners part at equilibrium. As for “HMGB1-B box (aa 89–162), 6x His-tagged (from UniProt P09429 89-162) (domain or fragment)”, the Kd was 1.02 µM. Under “acidic C-tail-deleted HMGB1 (HMGB1-ΔC, aa 1–186), 6x His-tagged (from UniProt P09429 1-186) (domain or fragment)” stands 1.38 µM; under “HMGB1-A box (aa 1–79), 6x His-tagged (from UniProt P09429 1-79) (domain or fragment)”, 6.1 µM.

For the substance “full-length HMGB1 (HMGB1-WT), 6x His-tagged (from UniProt P09429 1-215) (natural protein)”, the equilibrium dissociation constant (Kd) is 3.55 µM.
